{"source": "patent US20150087577A1", "about": "(POLYPHOR, published 2015)", "molecular_target": "human CXCR4 (human, UniProt P61073 1-352)", "sequence (P61073 whole entry)": "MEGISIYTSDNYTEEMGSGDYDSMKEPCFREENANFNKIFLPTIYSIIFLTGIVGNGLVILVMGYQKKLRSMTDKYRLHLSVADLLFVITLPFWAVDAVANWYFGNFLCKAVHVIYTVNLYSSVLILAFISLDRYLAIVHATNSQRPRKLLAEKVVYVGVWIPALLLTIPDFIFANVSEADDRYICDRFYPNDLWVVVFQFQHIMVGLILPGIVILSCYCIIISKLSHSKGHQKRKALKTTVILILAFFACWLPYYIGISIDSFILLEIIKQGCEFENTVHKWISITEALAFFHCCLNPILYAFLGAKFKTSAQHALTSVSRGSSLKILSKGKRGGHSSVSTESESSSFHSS", "assay": "cell-based or functional assay", "note": "Bridges are numbered along the chain shown (N, C = ends). [ ]: non-standard residue; d: D form. 2Nal = N[C@@H](Cc1ccc2ccccc2c1)C(=O)O; Cit = NC(=O)NCCC[C@H](N)C(=O)O"}
{"binder": "cyclo(YR[Cit]CRG[dP]RR[2Nal]CYQD[dP]P) (disulfide 4-11; SMILES N=C(N)NCCC[C@@H]1NC(=O)[C@@H]2CSSC[C@H](NC(=O)[C@H](Cc3ccc4ccccc4c3)NC(=O)[C@H](CCCNC(=N)N)NC(=O)[C@H](CCCNC(=N)N)NC(=O)[C@H]3CCCN3C(=O)CNC1=O)C(=O)N[C@@H](Cc1ccc(O)cc1)C(=O)N[C@@H](CCC(N)=O)C(=O)N[C@@H](CC(=O)O)C(=O)N1CCC[C@@H]1C(=O)N1CCC[C@H]1C(=O)N[C@@H](Cc1ccc(O)cc1)C(=O)N[C@@H](CCCNC(=N)N)C(=O)N[C@@H](CCCNC(N)=O)C(=O)N2)", "note": "[Example 85]", "values": [{"measurement": "IC50 (nM) Ca2+ assay (method 2)", "result": 2.7, "unit": "nM"}]}
{"binder": "cyclo(SR[Cit]CRG[dP]RR[2Nal]CYQK[dP]P) (disulfide 4-11; SMILES N=C(N)NCCC[C@@H]1NC(=O)[C@@H]2CSSC[C@H](NC(=O)[C@H](Cc3ccc4ccccc4c3)NC(=O)[C@H](CCCNC(=N)N)NC(=O)[C@H](CCCNC(=N)N)NC(=O)[C@H]3CCCN3C(=O)CNC1=O)C(=O)N[C@@H](Cc1ccc(O)cc1)C(=O)N[C@@H](CCC(N)=O)C(=O)N[C@@H](CCCCN)C(=O)N1CCC[C@@H]1C(=O)N1CCC[C@H]1C(=O)N[C@@H](CO)C(=O)N[C@@H](CCCNC(=N)N)C(=O)N[C@@H](CCCNC(N)=O)C(=O)N2)", "note": "[Example 89]", "values": [{"measurement": "IC50 (nM) Ca2+ assay (method 2)", "result": 0.5, "unit": "nM"}]}
{"binder": "cyclo(DR[Cit]CRG[dP]RR[2Nal]CYQK[dP]P) (disulfide 4-11; SMILES N=C(N)NCCC[C@@H]1NC(=O)[C@@H]2CSSC[C@H](NC(=O)[C@H](Cc3ccc4ccccc4c3)NC(=O)[C@H](CCCNC(=N)N)NC(=O)[C@H](CCCNC(=N)N)NC(=O)[C@H]3CCCN3C(=O)CNC1=O)C(=O)N[C@@H](Cc1ccc(O)cc1)C(=O)N[C@@H](CCC(N)=O)C(=O)N[C@@H](CCCCN)C(=O)N1CCC[C@@H]1C(=O)N1CCC[C@H]1C(=O)N[C@@H](CC(=O)O)C(=O)N[C@@H](CCCNC(=N)N)C(=O)N[C@@H](CCCNC(N)=O)C(=O)N2)", "note": "[Example 88]", "values": [{"measurement": "IC50 (nM) Ca2+ assay (method 2)", "result": 2.5, "unit": "nM"}]}
{"binder": "cyclo(YR[Cit]CRG[dP]RR[2Nal]CYSK[dP]P) (disulfide 4-11; SMILES N=C(N)NCCC[C@@H]1NC(=O)[C@@H]2CSSC[C@H](NC(=O)[C@H](Cc3ccc4ccccc4c3)NC(=O)[C@H](CCCNC(=N)N)NC(=O)[C@H](CCCNC(=N)N)NC(=O)[C@H]3CCCN3C(=O)CNC1=O)C(=O)N[C@@H](Cc1ccc(O)cc1)C(=O)N[C@@H](CO)C(=O)N[C@@H](CCCCN)C(=O)N1CCC[C@@H]1C(=O)N1CCC[C@H]1C(=O)N[C@@H](Cc1ccc(O)cc1)C(=O)N[C@@H](CCCNC(=N)N)C(=O)N[C@@H](CCCNC(N)=O)C(=O)N2)", "note": "[Example 81]", "values": [{"measurement": "IC50 (nM) Ca2+ assay (method 2)", "result": 4.9, "unit": "nM"}]}
{"binder": "cyclo(YR[Cit]CRG[dP]RR[2Nal]CYQA[dP]P) (disulfide 4-11; SMILES C[C@@H]1NC(=O)[C@H](CCC(N)=O)NC(=O)[C@H](Cc2ccc(O)cc2)NC(=O)[C@@H]2CSSC[C@H](NC(=O)[C@H](CCCNC(N)=O)NC(=O)[C@H](CCCNC(=N)N)NC(=O)[C@H](Cc3ccc(O)cc3)NC(=O)[C@@H]3CCCN3C(=O)[C@H]3CCCN3C1=O)C(=O)N[C@@H](CCCNC(=N)N)C(=O)NCC(=O)N1CCC[C@@H]1C(=O)N[C@@H](CCCNC(=N)N)C(=O)N[C@@H](CCCNC(=N)N)C(=O)N[C@@H](Cc1ccc3ccccc3c1)C(=O)N2)", "note": "[Example 86]", "values": [{"measurement": "IC50 (nM) Ca2+ assay (method 2)", "result": 0.69, "unit": "nM"}]}
{"binder": "cyclo(YR[Cit]CRG[dP]RR[2Nal]CYAK[dP]P) (disulfide 4-11; SMILES C[C@@H]1NC(=O)[C@H](Cc2ccc(O)cc2)NC(=O)[C@@H]2CSSC[C@H](NC(=O)[C@H](CCCNC(N)=O)NC(=O)[C@H](CCCNC(=N)N)NC(=O)[C@H](Cc3ccc(O)cc3)NC(=O)[C@@H]3CCCN3C(=O)[C@H]3CCCN3C(=O)[C@H](CCCCN)NC1=O)C(=O)N[C@@H](CCCNC(=N)N)C(=O)NCC(=O)N1CCC[C@@H]1C(=O)N[C@@H](CCCNC(=N)N)C(=O)N[C@@H](CCCNC(=N)N)C(=O)N[C@@H](Cc1ccc3ccccc3c1)C(=O)N2)", "note": "[Example 80]", "values": [{"measurement": "IC50 (nM) Ca2+ assay (method 2)", "result": 2.9, "unit": "nM"}]}
{"binder": "cyclo(YR[Cit]CRG[dP]RR[2Nal]CYQN[dP]P) (disulfide 4-11; SMILES N=C(N)NCCC[C@@H]1NC(=O)[C@@H]2CSSC[C@H](NC(=O)[C@H](Cc3ccc4ccccc4c3)NC(=O)[C@H](CCCNC(=N)N)NC(=O)[C@H](CCCNC(=N)N)NC(=O)[C@H]3CCCN3C(=O)CNC1=O)C(=O)N[C@@H](Cc1ccc(O)cc1)C(=O)N[C@@H](CCC(N)=O)C(=O)N[C@@H](CC(N)=O)C(=O)N1CCC[C@@H]1C(=O)N1CCC[C@H]1C(=O)N[C@@H](Cc1ccc(O)cc1)C(=O)N[C@@H](CCCNC(=N)N)C(=O)N[C@@H](CCCNC(N)=O)C(=O)N2)", "note": "[Example 84]", "values": [{"measurement": "IC50 (nM) Ca2+ assay (method 2)", "result": 3.9, "unit": "nM"}]}
{"binder": "cyclo(YR[Cit]CRG[dP]RR[2Nal]CYLK[dP]P) (disulfide 4-11; SMILES CC(C)C[C@@H]1NC(=O)[C@H](Cc2ccc(O)cc2)NC(=O)[C@@H]2CSSC[C@H](NC(=O)[C@H](CCCNC(N)=O)NC(=O)[C@H](CCCNC(=N)N)NC(=O)[C@H](Cc3ccc(O)cc3)NC(=O)[C@@H]3CCCN3C(=O)[C@H]3CCCN3C(=O)[C@H](CCCCN)NC1=O)C(=O)N[C@@H](CCCNC(=N)N)C(=O)NCC(=O)N1CCC[C@@H]1C(=O)N[C@@H](CCCNC(=N)N)C(=O)N[C@@H](CCCNC(=N)N)C(=O)N[C@@H](Cc1ccc3ccccc3c1)C(=O)N2)", "note": "[Example 82]", "values": [{"measurement": "IC50 (nM) Ca2+ assay (method 2)", "result": 4.8, "unit": "nM"}]}
{"binder": "cyclo(YR[Cit]CRG[dP]RR[2Nal]CYKK[dP]P) (disulfide 4-11; SMILES N=C(N)NCCC[C@@H]1NC(=O)[C@@H]2CSSC[C@H](NC(=O)[C@H](Cc3ccc4ccccc4c3)NC(=O)[C@H](CCCNC(=N)N)NC(=O)[C@H](CCCNC(=N)N)NC(=O)[C@H]3CCCN3C(=O)CNC1=O)C(=O)N[C@@H](Cc1ccc(O)cc1)C(=O)N[C@@H](CCCCN)C(=O)N[C@@H](CCCCN)C(=O)N1CCC[C@@H]1C(=O)N1CCC[C@H]1C(=O)N[C@@H](Cc1ccc(O)cc1)C(=O)N[C@@H](CCCNC(=N)N)C(=O)N[C@@H](CCCNC(N)=O)C(=O)N2)", "note": "[Example 79]", "values": [{"measurement": "IC50 (nM) Ca2+ assay (method 2)", "result": 2.4, "unit": "nM"}]}
{"binder": "cyclo(YR[Cit]VRRR[2Nal]VY[Cit]K[dP]P) (SMILES CC(C)[C@@H]1NC(=O)[C@H](CCCNC(N)=O)NC(=O)[C@H](CCCNC(=N)N)NC(=O)[C@H](Cc2ccc(O)cc2)NC(=O)[C@@H]2CCCN2C(=O)[C@H]2CCCN2C(=O)[C@H](CCCCN)NC(=O)[C@H](CCCNC(N)=O)NC(=O)[C@H](Cc2ccc(O)cc2)NC(=O)[C@H](C(C)C)NC(=O)[C@H](Cc2ccc3ccccc3c2)NC(=O)[C@H](CCCNC(=N)N)NC(=O)[C@H](CCCNC(=N)N)NC(=O)[C@H](CCCNC(=N)N)NC1=O)", "note": "[Example 6]", "values": [{"measurement": "IC50 (nM) Ca2+ assay (method 1)", "result": 1930, "unit": "nM"}]}
{"binder": "cyclo(YR[Cit]CRG[dP]RR[2Nal]CYMK[dP]P) (disulfide 4-11; SMILES CSCC[C@@H]1NC(=O)[C@H](Cc2ccc(O)cc2)NC(=O)[C@@H]2CSSC[C@H](NC(=O)[C@H](CCCNC(N)=O)NC(=O)[C@H](CCCNC(=N)N)NC(=O)[C@H](Cc3ccc(O)cc3)NC(=O)[C@@H]3CCCN3C(=O)[C@H]3CCCN3C(=O)[C@H](CCCCN)NC1=O)C(=O)N[C@@H](CCCNC(=N)N)C(=O)NCC(=O)N1CCC[C@@H]1C(=O)N[C@@H](CCCNC(=N)N)C(=O)N[C@@H](CCCNC(=N)N)C(=O)N[C@@H](Cc1ccc3ccccc3c1)C(=O)N2)", "note": "[Example 83]", "values": [{"measurement": "IC50 (nM) Ca2+ assay (method 2)", "result": 3.7, "unit": "nM"}]}
{"binder": "cyclo(YR[Cit]CRG[dP]RR[2Nal]CYQS[dP]P) (disulfide 4-11; SMILES N=C(N)NCCC[C@@H]1NC(=O)[C@@H]2CSSC[C@H](NC(=O)[C@H](Cc3ccc4ccccc4c3)NC(=O)[C@H](CCCNC(=N)N)NC(=O)[C@H](CCCNC(=N)N)NC(=O)[C@H]3CCCN3C(=O)CNC1=O)C(=O)N[C@@H](Cc1ccc(O)cc1)C(=O)N[C@@H](CCC(N)=O)C(=O)N[C@@H](CO)C(=O)N1CCC[C@@H]1C(=O)N1CCC[C@H]1C(=O)N[C@@H](Cc1ccc(O)cc1)C(=O)N[C@@H](CCCNC(=N)N)C(=O)N[C@@H](CCCNC(N)=O)C(=O)N2)", "note": "[Example 87]", "values": [{"measurement": "IC50 (nM) Ca2+ assay (method 2)", "result": 3.5, "unit": "nM"}]}
{"binder": "cyclo(YR[Cit]CRG[dP]RR[2Nal]CYDK[dP]P) (disulfide 4-11; SMILES N=C(N)NCCC[C@@H]1NC(=O)[C@@H]2CSSC[C@H](NC(=O)[C@H](Cc3ccc4ccccc4c3)NC(=O)[C@H](CCCNC(=N)N)NC(=O)[C@H](CCCNC(=N)N)NC(=O)[C@H]3CCCN3C(=O)CNC1=O)C(=O)N[C@@H](Cc1ccc(O)cc1)C(=O)N[C@@H](CC(=O)O)C(=O)N[C@@H](CCCCN)C(=O)N1CCC[C@@H]1C(=O)N1CCC[C@H]1C(=O)N[C@@H](Cc1ccc(O)cc1)C(=O)N[C@@H](CCCNC(=N)N)C(=O)N[C@@H](CCCNC(N)=O)C(=O)N2)", "note": "[Example 78]", "values": [{"measurement": "IC50 (nM) Ca2+ assay (method 2)", "result": 11, "unit": "nM"}]}
{"binder": "cyclo(YR[Cit]CRG[dP]RR[2Nal]CYNK[dP]P) (disulfide 4-11; SMILES N=C(N)NCCC[C@@H]1NC(=O)[C@@H]2CSSC[C@H](NC(=O)[C@H](Cc3ccc4ccccc4c3)NC(=O)[C@H](CCCNC(=N)N)NC(=O)[C@H](CCCNC(=N)N)NC(=O)[C@H]3CCCN3C(=O)CNC1=O)C(=O)N[C@@H](Cc1ccc(O)cc1)C(=O)N[C@@H](CC(N)=O)C(=O)N[C@@H](CCCCN)C(=O)N1CCC[C@@H]1C(=O)N1CCC[C@H]1C(=O)N[C@@H](Cc1ccc(O)cc1)C(=O)N[C@@H](CCCNC(=N)N)C(=O)N[C@@H](CCCNC(N)=O)C(=O)N2)", "note": "[Example 77]", "values": [{"measurement": "IC50 (nM) Ca2+ assay (method 2)", "result": 7, "unit": "nM"}]}
